# The supplement of paper PMC10126150
# ± gives the standard deviation of the averaged measurements.
# Test system: ATP
# Experiment: switch fluorescence ratio, 500 uM ATP over buffer (Cy3 cluster intensity, sum of 5 cycles each) (fold (ratio)); higher = stronger signal-on switching upon ATP binding; sequences stand for … in TCGTCGGCAGCGTCAGATGTGTATAAGAGACAGTTTTTTTTTTTTTTTTTTTTTTTTT…TC
# Conditions: aptamer strand: ATP DNA aptamer (quencher-CACCTGGGGGAGTATTGCGGAGGAAGG + anchor), 100 nM annealed; ATP concentration: 500 uM
# Method in brief: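 Clusters carrying Cy3-labelled switching strands on a modified Illumina MiSeq flow-cell were annealed to 100 nM quencher-labelled ATP aptamer and imaged in selection buffer. They were imaged again after 15 min with 500 uM ATP at 22 °C, over five buffer/ATP cycles with NaOH stripping and re-annealing in between. For each cluster, the fluorescence ratio is the summed Cy3 intensity of the target cycles divided by that of the buffer cycles, averaged per switch-domain sequence. Clusters outside 100-1000 RFU were left out.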
# 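Further: ATP exposure 15 min at 22 °C before imaging.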
row,Sequence,switch fluorescence ratio
1,GTTGGTGCAC,0.98 ± 0.04
2,CGGGGGGGTG,1.03 ± 0.096
3,TTGCACGTTT,1.27 ± 0.19
4,TTAAAAATAG,0.976 ± 0.027
5,ATTGTGTTCC,1.05 ± 0.0057
6,GGTTTTTCGT,0.977 ± 0.024
7,TACAGACTGT,1.04 ± 0.021
8,GGTTTCTCCG,1.46 ± 0.017
9,TGAAAAATGT,0.984 ± 0.016
10,CATATAGGGC,0.985 ± 0.02
11,TTTTAGGGGT,1.02 ± 0.046
12,GCCTACAGGT,1.03 ± 0.019
13,ATTTAGTTGT,1.03 ± 0.03
14,CCAAACTTAG,1.02 ± 0.027
15,AAGTAACGCG,0.977 ± 0.013
16,CACTGGGGTG,1.04 ± 0.038
17,GGGGTTTCTG,0.986 ± 0.03
18,TTTTTCAAGG,1.01 ± 0.013
19,TGAAGTCGCT,1.02 ± 0.0048
20,CAGAGACCTG,1.02 ± 0.057
21,AGTCGACTGT,0.956 ± 0.02
22,ATCAAACTCG,0.979 ± 0.029
23,ATAAAGTCAC,1.16 ± 0.18
24,GATACTGGGT,0.995 ± 0.046
25,TCGGGTAGGG,0.991 ± 0.025

row,Sequence,switch fluorescence ratio
1,GGGGGCGGAC,0.974 ± 0.097
2,TAACCGGTGC,1.065 ± 0.01
3,GTTTAAGGGT,0.996 ± 0.055
4,TTGTTAATAT,1 ± 0.035
5,GGTTAGGGGC,0.995 ± 0.04
6,TGTTGATA,0.968 ± 0.016
7,CATGGGGGCG,1.01 ± 0.078
8,GCAAAAAGGC,1.03 ± 0.015
9,CATTGTGTTT,0.9707 ± 0.0029
10,CTGCGACTGT,1.026 ± 0.0099
11,TTGTTATACG,1.09 ± 0.079
12,CGGGGGGAGG,1.01 ± 0.035
13,TGGGGGCGGT,0.996 ± 0.028
14,GACAGAAGTG,1.02 ± 0.019
15,GGGGCGGGAT,1.01 ± 0.02
16,CCTGGGGGGC,1.09 ± 0.18
17,TTTATTTGG,1.09 ± 0.12
18,GGGTGGATGG,0.985 ± 0.024
19,TCCGATTGGG,0.9801 ± 0.0071
20,AAGTTTTAAA,0.968 ± 0.013
21,GAGAGGTGTT,1.06 ± 0.039
22,ATACTATTTT,0.996 ± 0.023
23,TTGGGGCATA,1.43 ± 0.77
24,TCTCTGGCAT,1.79 ± 0.19
25,GGTCTTTGAA,0.979 ± 0.023

row,Sequence,switch fluorescence ratio
1,TATGAAATGT,1.01 ± 0.033
2,GTGTGTCTCT,0.999 ± 0.016
3,TCCGGCTGAG,1.02 ± 0.012
4,TTAAAAATGG,1.02 ± 0.018
5,TAATATAAAC,1.002 ± 0.0078
6,GGCGGAGGGT,0.986 ± 0.03
7,TAGCAGGGTG,1.14 ± 0.019
8,GGCGGCATGG,1.04 ± 0.023
9,AAATTCATTA,0.981 ± 0.083
10,AGGTGGTCTG,0.9885 ± 0.0047
11,TTGGACGGGT,1.022 ± 0.008
12,TACTGGCCGG,1.03 ± 0.029
13,CTCGTCGTAT,1.06 ± 0.05
14,TTGCCTGTTT,0.967 ± 0.049
15,TTATCGGATT,0.983 ± 0.029
16,AGTGATTTCG,1.01 ± 0.043
17,AGATGACTGA,0.997 ± 0.048
18,GCTTTACTCA,1.36 ± 0.049
19,CGGGCGGGTA,1.034 ± 0.0088
20,TCTTTGCGCG,1.02 ± 0.019
21,TACTTTTGCT,0.9669 ± 0.0014
22,TTATAATCGT,0.988 ± 0.014
23,TTACCTGGGG,1.03 ± 0.038
24,TGACGTCGTA,0.9689 ± 0.0094
25,AGGCCGGCTG,0.96 ± 0.066

row,Sequence,switch fluorescence ratio
1,TTAAGAGGG,0.987 ± 0.014
2,TTTTCAGATT,0.9601 ± 0.0086
3,AGGCCCATGT,1.02 ± 0.012
4,GGGTTGAATG,0.978 ± 0.014
5,TTATGCTTTC,1.25 ± 0.34
6,TTATTGCGCT,0.994 ± 0.013
7,GATACTATTT,0.98 ± 0.03
8,CAGTTCATGA,1.01 ± 0.027
9,CGTAGGAGGG,0.997 ± 0.04
10,CGGGTGTGGA,1.05 ± 0.04
11,TCAAGTTTTG,0.972 ± 0.015
12,GTTTTATTAT,1.017 ± 0.0017
13,ATCCTATTGT,1.03 ± 0.036
14,TCCTGATGGC,0.985 ± 0.016
15,TAAAGGGATT,0.994 ± 0.032
16,TCTAGAGCGG,1.02 ± 0.029
17,AATTTAGCCA,1.02 ± 0.018
18,ATTTTACTAA,1.05 ± 0.021
19,TGGGGTACTA,0.975 ± 0.069
20,TTAAGGGCGC,1 ± 0.084
21,GATGGTTAGT,0.974 ± 0.036
22,GATGAATTAG,1.005 ± 0.0082
23,ACCGATACCC,1.31 ± 0.022
24,CGATACCGTG,1.007 ± 0.0044
25,CGGGACTCTT,0.995 ± 0.017

row,Sequence,switch fluorescence ratio
1,GGGGGTAAGT,1.01 ± 0.02
2,ATGGGTTTTT,0.979 ± 0.029
3,TGAGTGCTGC,1.08 ± 0.075
4,CAGAAGTTTG,1 ± 0.034
5,TGCTTGGGTA,1.01 ± 0.021
6,ACGTTAGGTC,1.04 ± 0.019
7,CCCGTATACT,3.22 ± 1.6
8,TTTTCCTAAA,1.06 ± 0.11
9,GTAATATCGG,0.998 ± 0.018
10,GCCCTCCTGC,1.16 ± 0.078
11,ATTTAAATTG,1.02 ± 0.052
12,GCATATTTTG,0.994 ± 0.029
13,CACGGATAAA,1.04 ± 0.022
14,CCCCTTGCTC,1.47 ± 0.058
15,GCGTTGGGTC,1.02 ± 0.014
16,TGTTTTTGGA,1 ± 0.026
17,GCTCTCGGTG,1.01 ± 0.017
18,AGCGATTCTG,1.02 ± 0.032
19,CCTAAATGGG,1.01 ± 0.077
20,TTAGTACCCA,1.03 ± 0.0032
21,TTATGTAGGT,0.9798 ± 0.007
22,GAGTTTGGAC,0.985 ± 0.058
23,CGTTGGATT,0.986 ± 0.017
24,GGGCATGGGC,0.9965 ± 0.0015
25,GTCGAGAAGG,0.991 ± 0.009

row,Sequence,switch fluorescence ratio
1,ATGGATTTAA,1.012 ± 0.0041
2,TGTATAAAAA,0.9906 ± 0.0039
3,TCAGTGCTGT,1 ± 0.035
4,TCGTTCCGGT,1.02 ± 0.026
5,TTCGGGGGGA,1.04 ± 0.09
6,ACAACGAAAG,1.039 ± 0.0061
7,GAAGGGGCCC,1.02 ± 0.013
8,GATTCCGTGT,1.01 ± 0.031
9,CGTTACGCGC,1 ± 0.023
10,CGAAGACGTA,1.05 ± 0.06
11,AACGTTTGTT,1.14 ± 0.23
12,TTTATAGGGG,1.08 ± 0.14
13,TTTGTAAGGT,1.032 ± 0.0089
14,CTTCAAAGTA,1.03 ± 0.026
15,TCGGGGATCG,1.006 ± 0.0025
16,TGATAGAAGT,1.01 ± 0.015
17,GGGTTGTGTA,1 ± 0.014
18,AGTAAAGATT,0.9995 ± 0.0041
19,TGTCAGTGGG,0.975 ± 0.034
20,GTTTATTGAA,1.024 ± 0.0036
21,GGCATCCAGG,1.38 ± 0.064
22,GGTAGAGACT,0.9755 ± 0.0023
23,TAGGCAGATG,1.01 ± 0.02
24,GGGGTGAGGA,0.981 ± 0.037
25,TTTGGAATCA,1.008 ± 0.0098

row,Sequence,switch fluorescence ratio
1,CTCTGATAGC,1.23 ± 0.013
2,AAGAGTATAA,0.985 ± 0.04
3,GGGTCAATAT,1.13 ± 0.032
4,CCGTAGAATT,1.68 ± 0.046
5,TAGGCCAAGT,0.989 ± 0.026
6,TCTAGGGGGG,1.02 ± 0.058
7,CTGGGGAGCG,0.954 ± 0.034
8,CGGGGTAAGT,1.01 ± 0.021
9,CTACAATGTA,1.01 ± 0.021
10,CGGCCTGTGC,1.03 ± 0.087
11,TTTGGGATAC,1.24 ± 0.28
12,GTAGTTCGCC,1.02 ± 0.023
13,TTGTTTCCCG,1.013 ± 0.0086
14,ATTAAGCAAG,1.04 ± 0.015
15,CATGCGTTG,0.9898 ± 0.0016
16,ATATTTACGG,1.079 ± 0.0071
17,TATCTATGGG,0.983 ± 0.047
18,TTTCCGGCGT,1.03 ± 0.023
19,GAGATAGGGA,1.01 ± 0.029
20,CATTTGGTCG,0.955 ± 0.13
21,AGCACTTTAT,1.05 ± 0.073
22,GTATGATTGT,0.994 ± 0.027
23,CGGTAAATAA,1.01 ± 0.021
24,TTTTTAATAC,1.33 ± 0.29
25,TTCAGAAGCC,1.12 ± 0.061

row,Sequence,switch fluorescence ratio
1,GAGGTTATCA,1.01 ± 0.013
2,GAGTGCGGCT,1.07 ± 0.16
3,ACCCATCCAT,1.02 ± 0.017
4,CACATTATTC,1.04 ± 0.033
5,GGGTCAGTCC,0.978 ± 0.019
6,GAGGGGCCGG,0.972 ± 0.057
7,TCAATAGAGG,1.05 ± 0.034
8,CATCTTTGCA,0.9943 ± 0.0063
9,ATGTAGGCGT,0.967 ± 0.021
10,TAGTAGAGCT,1.009 ± 0.002
11,ACGTTGCTAA,1.0246 ± 0.00021
12,TTGGGTTTAT,0.999 ± 0.017
13,CCCGTGCTTC,1.07 ± 0.063
14,CCAAGCGGTA,1.3 ± 0.026
15,GGGTAGAAGT,0.988 ± 0.023
16,TTTAGAGTGT,1.044 ± 0.0087
17,CTCTTTGCAG,1.086 ± 0.0044
18,GTGTTAGGGA,1.01 ± 0.015
19,TGTATGGGAG,0.968 ± 0.02
20,TGGGAGGACG,0.97 ± 0.038
21,TCCTGCGCGT,4.52 ± 0.71
22,TAGTTACACG,1.01 ± 0.025
23,TAGGGCAGAG,0.994 ± 0.021
24,GCGACCATCC,1.8 ± 0.08
25,TACGTATTTT,1.023 ± 0.0035
